In experiment [1] the target is T1, MMP2 (Homo sapiens, UniProt P08253).
T1 sequence (P08253 110-660): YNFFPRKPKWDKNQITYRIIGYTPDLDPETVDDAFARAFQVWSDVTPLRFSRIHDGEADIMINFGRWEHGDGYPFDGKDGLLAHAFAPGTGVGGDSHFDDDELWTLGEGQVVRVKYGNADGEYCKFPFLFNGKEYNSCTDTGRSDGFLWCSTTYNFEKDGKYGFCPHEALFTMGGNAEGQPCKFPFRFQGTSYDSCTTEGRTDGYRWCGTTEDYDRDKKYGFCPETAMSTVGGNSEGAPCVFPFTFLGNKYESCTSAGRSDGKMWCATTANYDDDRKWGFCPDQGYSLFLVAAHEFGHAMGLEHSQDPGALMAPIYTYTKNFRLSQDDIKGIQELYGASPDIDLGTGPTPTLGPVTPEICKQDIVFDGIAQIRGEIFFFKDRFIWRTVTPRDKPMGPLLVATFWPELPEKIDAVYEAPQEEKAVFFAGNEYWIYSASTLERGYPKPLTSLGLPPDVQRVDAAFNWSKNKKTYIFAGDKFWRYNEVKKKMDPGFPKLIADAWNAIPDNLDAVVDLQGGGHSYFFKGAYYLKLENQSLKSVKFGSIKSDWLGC
Also noted: endogenous in cells; host or cells: human aortic smooth muscle cells (HASMC). The following applies: GM6001 releasing coating vs metal substrate; cited from earlier work.

In experiment [2] the test system is human aortic smooth muscle cell (HASMC). The following applies: coating containing GM6001 compared to metallic substrate only, cited from earlier work.
The subject of a further experiment is HASMCs. Particulars: GM6001 released from PLGA coating compared to metallic substrate only; cited from earlier work.
The target in experiment [3] is T2, pseudolysin (Pseudomonas aeruginosa, UniProt P14756). Particulars: Cathgart G. R. et al, 2011; cited from earlier work.
T2 sequence (P14756 198-498): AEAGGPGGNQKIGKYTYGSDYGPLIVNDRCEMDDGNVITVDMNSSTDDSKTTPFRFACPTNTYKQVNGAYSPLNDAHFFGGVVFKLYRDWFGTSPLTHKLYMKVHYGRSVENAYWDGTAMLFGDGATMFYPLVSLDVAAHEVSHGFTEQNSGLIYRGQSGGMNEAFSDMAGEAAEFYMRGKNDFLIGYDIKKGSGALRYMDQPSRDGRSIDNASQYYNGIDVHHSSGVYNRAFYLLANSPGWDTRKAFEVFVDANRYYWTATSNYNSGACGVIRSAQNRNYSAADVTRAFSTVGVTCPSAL
Experiment [4] concerns P. aeruginosa cultures VB7623. Put plainly: growth curves (OD 600 nm) of clinical isolate. In kind it is cell-based, Pseudomonas aeruginosa. The method, then: (§1) Gentamycin MIC (minimal inhibitory concentration) values were determined using a standard two fold microtiter broth dilution protocol with Nutrient Broth as medium. Midexponential phase cultures of P. aeruginosa reference strain DSM No.: 50071 and two antibiotic-resistant clinical isolates (P. aeruginosa VB7623 and VB7444), which were isolated from the tracheal secrete of a patient, were tested. Antimicrobial susceptibility testing of the clinical isolates was performed by the University Clinic Tubingen. […] Further, the OD (optical density) at 600 nm in the presence and absence of the insect metalloprotease inhibitor IMPI was investigated. For assessing influences of IMPI on bacterial growth final concentrations of IMPI between 20 and 75 μM were used. Bacterial growth was monitored at 37° C. over 48 h. All MIC values were done as triplicates.

Experiment [5] deals with P. aeruginosa (DSM No. 50071). Put plainly: Gentamycin MIC determination, microtiter broth dilution. Particulars: reference strain DSM No. 50071, partially resistant to Gentamycin. The class given is cell-based, Pseudomonas aeruginosa. Here is the method: as §1
(In general: Dilution methods test growth across graded concentrations, often in twofold steps.)

The target in experiment [6] is T2, pseudolysin. The following applies: cited from earlier work.
The target in experiment [7] is T1, MMP2. Particulars: cited from earlier work.
Experiment [8] relates to P. aeruginosa (Clinical Isolate VB7623). Put plainly: pyoveridine development and planktonic biofilm in 96-well plate. The class given is cell-based, Pseudomonas aeruginosa. Particulars: after 48 h. The method, then: FIG. 9: Comparison of the development of pyoveridine (dark grey background in circular light grey structure, i.e. the plate wells) during growth of P. aeruginosa (Clinical Isolate VB7623 from tracheal secrete, assessed as 4MRGN strain [EUCAST]) in presence (lower rectangle) and absence (upper rectangle) of the M4-metalloprotease inhibitor IMPIα (73 μM; NB-Medium No. 5), and different Gentamycin concentrations (32; 8; 4; 2; 1; 0.5; 0.25; 0.125 μg/ml) in a 96-well plate after 48 h. Pyoveridine is not expressed in the concurrent presence of IMPI and Gentamycin, not even at gentamycin concentrations as low as 0.125 μg/
FIG. 15: Comparison of the development of planctonic biofilm and pyoveridine (grey colour in the wells) during growth of P. aeruginosa (clinical isolate VB7623 from tracheal secrete, assessed as 4MRGN strain [EUCAST]) in the presence (black outlined rectangle) and absence (double outlined rectangle) of the M4-metalloprotease inhibitor IMPI (60 μM; NB-Medium No. 5) in a 96-well plate after 48 h.
as §1

For the next experiment, the system named is P. aeruginosa. Put plainly: synthesis of siderophore pyoverdine. The class given is cell-based, Pseudomonas aeruginosa. The following applies: IMPIα together with the antibiotic gentamycin.
The target in the next experiment is thermolysin (Bacillus thermoproteolyticus, UniProt P00800). The following applies: cited from earlier work.
thermolysin, sequence (P00800 233-548): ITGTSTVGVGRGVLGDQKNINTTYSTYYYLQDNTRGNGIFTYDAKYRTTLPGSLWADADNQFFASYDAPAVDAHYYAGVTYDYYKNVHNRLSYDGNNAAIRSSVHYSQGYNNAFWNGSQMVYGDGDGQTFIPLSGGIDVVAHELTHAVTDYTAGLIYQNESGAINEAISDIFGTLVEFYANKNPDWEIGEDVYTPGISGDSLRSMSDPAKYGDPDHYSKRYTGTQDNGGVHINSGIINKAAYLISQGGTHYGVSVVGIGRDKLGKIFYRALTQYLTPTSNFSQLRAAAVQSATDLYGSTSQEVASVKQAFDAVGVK
A further experiment has as its system bacillolysin. Particulars: cited from earlier work.
The subject of a further experiment is Pseudomonas aeruginosa. Put plainly: formation of freely suspended biofilm in flocs (FIG. 4). The class given is cell-based. The following applies: incubated with IMPIα at 62.5 and 125 ng/ml Gm doses. Here is the method:
FIG. 4: The formation of freely suspended biofilm in flocs is a successful strategy used by Pseudomonas aeruginosa to overcome stressfull envionmental conditions (e.g. addition of Gentamicin Gm to buffer; Panel A (62.5 ng/ml) and B (125 ng/ml)).

Another experiment addresses T3, MMP1 (Homo sapiens, UniProt P03956).
T3 sequence (P03956 100-469): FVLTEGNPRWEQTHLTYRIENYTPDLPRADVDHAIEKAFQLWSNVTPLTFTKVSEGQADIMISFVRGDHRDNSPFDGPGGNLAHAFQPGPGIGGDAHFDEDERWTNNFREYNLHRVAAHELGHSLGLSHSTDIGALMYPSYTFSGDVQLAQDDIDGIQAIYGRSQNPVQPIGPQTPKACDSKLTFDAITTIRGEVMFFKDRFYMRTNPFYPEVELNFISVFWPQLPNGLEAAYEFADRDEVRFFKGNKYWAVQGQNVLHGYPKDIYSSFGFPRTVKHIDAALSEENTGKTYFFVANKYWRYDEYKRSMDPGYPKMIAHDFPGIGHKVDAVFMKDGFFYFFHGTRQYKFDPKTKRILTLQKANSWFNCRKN
The following applies: cited from earlier work.

Where two headings read alike, the source gives them in different places.

`CNC(=O)[C@H](Cc1c[nH]c2ccccc12)NC(=O)[C@@H](CC(=O)NO)CC(C)C` [GM6001]: on MMP2 [1], the “MMP-2 activity normalized to cell number” value was “not statistically different”. The “reduction of rate of in vitro cell growth” value in [2] (after 4 days) was 30.7%; in experiment [2] (after 7 days), 37.4%. Further, the decrease of migration in the experiment with HASMCs is given as 21.4%.
As a reminder, the Ki is a measure of affinity in units of concentration, obtained from inhibition or displacement. Consider `NC(=O)C(Cc1ccc(O)cc1)NC(=O)C(Cc1ccccc1)NC(=O)CS` (stereo not drawn) [N-mercaptoacetyl-Phe-Tyr-amide], for which, at pseudolysin [3], the Ki is 41 nM.
The MIC is the smallest concentration in the dilution series that meets the test's criterion for growth inhibition. A low value points to greater potency. With Gentamicin [Gentamycin], the growth rate entry in [4] (low concentrations of gentamycin, after 26 h in NB-medium) is “enhance growth”; in [4] (very low concentrations of gentamycin) it was “no effect”. Besides, the MIC in experiment [5] was 8 µg/mL.

B1: IMPIα: insect metalloproteinase inhibitor from G. mellonella, 69 amino acids; M4-metalloprotease inhibitor (protein, listed as Galleria mellonella)
chain: IVLICNGGHEYYECGGACDNVCADLHIQNKTNCPIINIRCNDKCYCEDGYARDVNGKCIPIKDCPKIRS
Regarding B1, the IC60 with pseudolysin [6] is 81.66 nM; in the experiment with thermolysin, 0.62 nM; in the experiment on bacillolysin, 0.86 nM. Besides, the inhibition result in the experiment with MMP2 [7] and in the experiment with MMP1 was “negligible inhibition” in each case. Further, the planctonic biofilm entry in experiment [8] (IMPI 60 μM, no antibiotic) was “no plantonic biofilm can be observed”. Also, the pyoveridine secretion entry in [8] (IMPI 60 μM, no antibiotic, NB-Medium No. 5) is on record as “secreted less”. Also, the pyoveridine expression entry in [8] (IMPIα 73 μM with Gentamycin down to 0.125 μg/ml, NB-Medium No. 5) is “not expressed”. Moreover, the synthesis of pyoverdine result with P. aeruginosa is “inhibited synergistically”. In the experiment on Pseudomonas aeruginosa, the biofilm formation entry is recorded as “biofilm formation is prohibited”.

These data come from patent publication US10279017B2 (priority 2014, dated 2019).
